{"source": "ChEMBL document CHEMBL2073913", "about": "“Functional multidrug resistance protein (MRP1) lacking the N-terminal transmembrane domain” (J Biol Chem, 1998)", "substrate": "NC(CCC(=O)NC(CNCC(=O)O)CSCCN1C(=O)C=CC1=O)C(=O)O", "assay": "TP_TRANSPORTER: uptake in membrane vesicles from MRP1-expressing Sf9 cells", "format": "functional, cell membranes, Membrane vesicle", "data": [{"protein": "Multidrug resistance-associated protein 1 (Homo sapiens) (protein) MALRGFCSADGSDPLWDWNVTWNTSNPDFTKCFQNTVLVWVPCFYLWACFPFYFLYLSRHDRGYIQMTPLNKTKTALGFLLWIVCWADLFYSFWERSRGIFLAPVFLVSPTLLGITMLLATFLIQLERRKGVQSSGIMLTFWLVALVCALAILRSKIMTALKEDAQVDLFRDITFYVYFSLLLIQLVLSCFSDRSPLFSETIHDPNPCPESSASFLSRITFWWITGLIVRGYRQPLEGSDLWSLNKEDTSEQVVPVLVKNWKKECAKTRKQPVKVVYSSKDPAQPKESSKVDANEEVEALIVKSPQKEWNPSLFKVLYKTFGPYFLMSFFFKAIHDLMMFSGPQILKLLIKFVNDTKAPDWQGYFYTVLLFVTACLQTLVLHQYFHICFVSGMRIKTAVIGAVYRKALVITNSARKSSTVGEIVNLMSVDAQRFMDLATYINMIWSAPLQVILALYLLWLNLGPSVLAGVAVMVLMVPVNAVMAMKTKTYQVAHMKSKDNRIKLMNEILNGIKVLKLYAWELAFKDKVLAIRQEELKVLKKSAYLSAVGTFTWVCTPFLVALCTFAVYVTIDENNILDAQTAFVSLALFNILRFPLNILPMVISSIVQASVSLKRLRIFLSHEELEPDSIERRPVKDGGGTNSITVRNATFTWARSDPPTLNGITFSIPEGALVAVVGQVGCGKSSLLSALLAEMDKVEGHVAIKGSVAYVPQQAWIQNDSLRENILFGCQLEEPYYRSVIQACALLPDLEILPSGDRTEIGEKGVNLSGGQKQRVSLARAVYSNADIYLFDDPLSAVDAHVGKHIFENVIGPKGMLKNKTRILVTHSMSYLPQVDVIIVMSGGKISEMGSYQELLARDGAFAEFLRTYASTEQEQDAEENGVTGVSGPGKEAKQMENGMLVTDSAGKQLQRQLSSSSSYSGDISRHHNSTAELQKAEAKKEETWKLMEADKAQTGQVKLSVYWDYMKAIGLFISFLSIFLFMCNHVSALASNYWLSLWTDDPIVNGTQEHTKVRLSVYGALGISQGIAVFGYSMAVSIGGILASRCLHVDLLHSILRSPMSFFERTPSGNLVNRFSKELDTVDSMIPEVIKMFMGSLFNVIGACIVILLATPIAAIIIPPLGLIYFFVQRFYVASSRQLKRLESVSRSPVYSHFNETLLGVSVIRAFEEQERFIHQSDLKVDENQKAYYPSIVANRWLAVRLECVGNCIVLFAALFAVISRHSLSAGLVGLSVSYSLQVTTYLNWLVRMSSEMETNIVAVERLKEYSETEKEAPWQIQETAPPSSWPQVGRVEFRNYCLRYREDLDFVLRHINVTINGGEKVGIVGRTGAGKSSLTLGLFRINESAEGEIIIDGINIAKIGLHDLRFKITIIPQDPVLFSGSLRMNLDPFSQYSDEEVWTSLELAHLKDFVSALPDKLDHECAEGGENLSVGQRQLVCLARALLRKTKILVLDEATAAVDLETDDLIQSTIRTQFEDCTVLTIAHRLNTIMDYTRVIVLDKGEIQEYGAPSDLLQQRGLFYSMAKDAGLV", "values": [{"measurement": "Km", "value": 155, "unit": "µM"}]}]}
